Experimental data as given in patent publication US20080096811A1, “[…] VPAC2 RECEPTOR PEPTIDE AGONISTS” (Eli Lilly and Company, published 2008).
*1 amine or outer side, *2 acyl side, *3 side chain or, on linkers, in order; H or OH if unused. Where no end group is shown, it is not given here. Side-chain parts run from the residue outwards. The star is where a group is joined. γGlu = O=C(O)[C@H](CCC(=O)[*:2])N[*:1]; Palmitoyl = CCCCCCCCCCCCCCCC(=O)*; Hexanoyl = CCCCCC(=O)*

B1: P81 (peptide)
peptide: Hexanoyl-HSDAVFTDNYTRLRKQVAAKKYLQSIKNSRTSPPPK([γGlu-Palmitoyl])-NH2
SMILES: CCCCCCCCCCCCCCCC(=O)N[C@@H](CCC(=O)NCCCC[C@H](NC(=O)[C@@H]1CCCN1C(=O)[C@@H]1CCCN1C(=O)[C@@H]1CCCN1C(=O)[C@H](CO)NC(=O)[C@@H](NC(=O)[C@H](CCCNC(=N)N)NC(=O)[C@H](CO)NC(=O)[C@H](CC(N)=O)NC(=O)[C@H](CCCCN)NC(=O)[C@@H](NC(=O)[C@H](CO)NC(=O)[C@H](CCC(N)=O)NC(=O)[C@H](CC(C)C)NC(=O)[C@H](Cc1ccc(O)cc1)NC(=O)[C@H](CCCCN)NC(=O)[C@H](CCCCN)NC(=O)[C@H](C)NC(=O)[C@H](C)NC(=O)[C@@H](NC(=O)[C@H](CCC(N)=O)NC(=O)[C@H](CCCCN)NC(=O)[C@H](CCCNC(=N)N)NC(=O)[C@H](CC(C)C)NC(=O)[C@H](CCCNC(=N)N)NC(=O)[C@@H](NC(=O)[C@H](Cc1ccc(O)cc1)NC(=O)[C@H](CC(N)=O)NC(=O)[C@H](CC(=O)O)NC(=O)[C@@H](NC(=O)[C@H](Cc1ccccc1)NC(=O)[C@@H](NC(=O)[C@H](C)NC(=O)[C@H](CC(=O)O)NC(=O)[C@H](CO)NC(=O)[C@H](Cc1c[nH]cn1)NC(=O)CCCCC)C(C)C)[C@@H](C)O)[C@@H](C)O)C(C)C)[C@@H](C)CC)[C@@H](C)O)C(N)=O)C(=O)O
B2: P118 (peptide)
peptide: Hexanoyl-HSDAVFTDNYTRLRKQVAAKKYLQSIKNSRTSPPPK(Trp)-NH2
SMILES: CCCCCC(=O)N[C@@H](Cc1c[nH]cn1)C(=O)N[C@@H](CO)C(=O)N[C@@H](CC(=O)O)C(=O)N[C@@H](C)C(=O)N[C@H](C(=O)N[C@@H](Cc1ccccc1)C(=O)N[C@H](C(=O)N[C@@H](CC(=O)O)C(=O)N[C@@H](CC(N)=O)C(=O)N[C@@H](Cc1ccc(O)cc1)C(=O)N[C@H](C(=O)N[C@@H](CCCNC(=N)N)C(=O)N[C@@H](CC(C)C)C(=O)N[C@@H](CCCNC(=N)N)C(=O)N[C@@H](CCCCN)C(=O)N[C@@H](CCC(N)=O)C(=O)N[C@H](C(=O)N[C@@H](C)C(=O)N[C@@H](C)C(=O)N[C@@H](CCCCN)C(=O)N[C@@H](CCCCN)C(=O)N[C@@H](Cc1ccc(O)cc1)C(=O)N[C@@H](CC(C)C)C(=O)N[C@@H](CCC(N)=O)C(=O)N[C@@H](CO)C(=O)N[C@H](C(=O)N[C@@H](CCCCN)C(=O)N[C@@H](CC(N)=O)C(=O)N[C@@H](CO)C(=O)N[C@@H](CCCNC(=N)N)C(=O)N[C@H](C(=O)N[C@@H](CO)C(=O)N1CCC[C@H]1C(=O)N1CCC[C@H]1C(=O)N1CCC[C@H]1C(=O)N[C@@H](CCCCNC(=O)[C@@H](N)Cc1c[nH]c2ccccc12)C(N)=O)[C@@H](C)O)[C@@H](C)CC)C(C)C)[C@@H](C)O)[C@@H](C)O)C(C)C
B3: P309 (peptide)
peptide: HSDAVFTDNYTRLRXQVAAXKYLQSIKNSRTSPPP
modifications: N-terminal hexanoyl (C6); Aib (amino isobutyric acid) at positions 15 and 20; C-terminal amide (-NH2)

Columns and labels:
rat VPAC1 receptor = target: T1, rat VPAC1 receptor (rat, UniProt P30083); assay: cell-based or functional assay
T1 sequence: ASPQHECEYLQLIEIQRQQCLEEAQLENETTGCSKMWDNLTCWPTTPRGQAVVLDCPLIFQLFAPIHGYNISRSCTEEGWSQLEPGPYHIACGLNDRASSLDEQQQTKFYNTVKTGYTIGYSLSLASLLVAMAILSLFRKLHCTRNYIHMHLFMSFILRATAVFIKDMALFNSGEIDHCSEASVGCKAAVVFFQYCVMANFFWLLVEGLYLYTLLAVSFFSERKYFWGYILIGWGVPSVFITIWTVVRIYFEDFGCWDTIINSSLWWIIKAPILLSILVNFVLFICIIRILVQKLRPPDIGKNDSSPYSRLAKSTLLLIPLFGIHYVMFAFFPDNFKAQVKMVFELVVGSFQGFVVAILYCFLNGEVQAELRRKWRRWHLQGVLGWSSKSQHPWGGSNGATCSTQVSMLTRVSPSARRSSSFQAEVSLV

[1] = target: T2, human VPAC2 receptor (human) (UniProt P41587)
T2 sequence: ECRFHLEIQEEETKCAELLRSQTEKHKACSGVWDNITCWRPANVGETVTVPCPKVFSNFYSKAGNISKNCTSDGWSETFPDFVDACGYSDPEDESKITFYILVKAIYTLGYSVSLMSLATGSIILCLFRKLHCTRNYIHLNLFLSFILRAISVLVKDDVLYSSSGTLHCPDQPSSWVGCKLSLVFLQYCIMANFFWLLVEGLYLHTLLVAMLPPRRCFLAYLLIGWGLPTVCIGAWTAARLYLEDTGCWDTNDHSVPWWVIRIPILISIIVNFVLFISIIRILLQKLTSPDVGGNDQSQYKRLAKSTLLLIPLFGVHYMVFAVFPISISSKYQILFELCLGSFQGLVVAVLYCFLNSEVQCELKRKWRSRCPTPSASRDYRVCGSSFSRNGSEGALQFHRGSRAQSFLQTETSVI

rat VPAC2 receptor = target: T3, rat VPAC2 receptor (rat, UniProt P35000); assay: cell-based or functional assay
T3 sequence: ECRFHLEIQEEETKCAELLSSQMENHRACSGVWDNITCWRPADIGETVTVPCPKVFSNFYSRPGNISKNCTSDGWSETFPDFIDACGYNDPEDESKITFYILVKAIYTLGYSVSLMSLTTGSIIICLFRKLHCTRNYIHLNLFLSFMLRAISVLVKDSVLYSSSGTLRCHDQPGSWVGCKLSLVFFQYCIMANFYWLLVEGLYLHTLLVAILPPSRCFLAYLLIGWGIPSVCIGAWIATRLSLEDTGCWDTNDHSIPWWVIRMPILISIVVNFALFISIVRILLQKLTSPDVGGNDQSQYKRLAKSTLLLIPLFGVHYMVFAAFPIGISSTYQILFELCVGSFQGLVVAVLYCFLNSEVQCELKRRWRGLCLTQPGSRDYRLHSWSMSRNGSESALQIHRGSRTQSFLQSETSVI

Binder	EC50 for cAMP generation, DiscoveRx (rat VPAC1 receptor) [pM]	EC50 (nM) for cAMP generation, Alpha Screen [1] [nM]	EC50 for cAMP generation, DiscoveRx (rat VPAC2 receptor) [pM]	EC50 (nM) for cAMP generation, DiscoveRx [1] [nM]
HSDAVFTDNYTRLRKAAAAKKYLQSIKNSRTSPPP-NH2 [P97]	300	0.64		
B1	800	0.01	50	0.18
B2	470			
B3		0.16	50	
